Laboratory results: the DeepSol protein solubility set

test: soluble on expression in E. coli; label from the status in PepcDB or PDB records

Q: Which “soluble on expression in E. coli” value does the source give for “MAHHHHHHMPAHRRYSSVSSSSSRAFSEPSDGGTSSVNDSNSYYSEGSGSYRSVSSVLASRSGAKTTAATTASSTSAVDSSSTNTFSDVLTTSSAYSHSSAPPRRAVTRPAASRSEAVGHKTTKGASGVVVADHNNTGVGETLAQRTASTFTAPTTASSVTVDGTDGLVRAPQSLMLQAALAPVSNRTANVARVKPCNVSEEELVHHPWAPVDCDTTVDASKEGGDRGGLALNVLDTIHTVPIAVPLPPEEAPRRREEGSPTYPSRLAFRVVPSSSPLRHSDSAVTEDKDGTGNGGGGAALGADGATAPRARKTSIACCCCCCLHGCGEKAPCNTKRYTATRQKPHHPLRSHHVPLVSFRTTREHGIPMEGVQNVLPSVEEAARYQNLKVDMMGTEEFPKLMRKAIQPRDRLAGGLRLEKSYAFGHGAGGGRGGAGQSAFVRDGDPQGFWIAHLHRCAIVRLEPIGAE” here?
A: Its value is “not soluble”.

Q: For “MNKLTIIVTYYNAEEYITGCLESIKQQRTQDFNLIIVNDGSTDQSKKLMDEAIKDYDKNIRFIDLDENSGHAHARNIALEEVETPYFMFLDADDELASYAITFYLEKFNNTDGLIAPIHSFTTQRPQFVDLDRVRVEYFNAKENINSFLRKQSACNIIFRTAIVRAHHIRFNENLNTYVDWSFVLEYMKYVNKFVRIFNFPFYFRGEVYDPFETLTLSEQNFDILFKDYVNSFYDAIKRATNPKVREFIVTKMGNKIANEFEPTRYDINERYQTHKDTLVELSKFLHVHLVKNQKLINKIETILLMNNETDKAFKVNQFRKTLRHVKNIVLRRKNKERSLYDLTDKEDNVKPKTIVFESFGGKNYSDSPKYIYEYMQKYYPNYRYIWSFKNPDKNVVPGSAEKVKRNSAEYYQAYSEASHWVSNARTPLYLNKKENQTYIQTWHGTPLKRLANDMKVVRMPGTTTPKYKRNFNRETSRWDYLISPNRYSTEIFRSAFWMDEERILEIGYPRNDVLVNRANDQEYLDEIRTHLNLPSDKKVIMYAPTWRDDEFVSKGKYLFELKIDLDNLYKELGDDYVILLRMHYLISNALDLSGYENFAIDVSNYNDVSELFLISDCLITDYSSVMFDYGILKRPQFFFAYDIDKYDKGLRGFYMNYMEDLPGPIYTEPYGLAKELKNLDKVQQQYQEKIDAFYDRFCSVDNGKASQYIGDLIHKDIKEQLEHHHHHH”, which “soluble on expression in E. coli” value is on record?
A: Its value is “soluble”.

Q: With “MSLSKIFVTGATGLIGIKLVQRLKEEGHEVAGFTTSENGQQKLAAINVKAYIGDILKADTIDQALADFKPEIIINQITDLKNVDMAANTKVRIEGSKNLIDAAKKHDVKKVIAQSIAFMYEPGEGLANEETSLDFNSTGDRKVTVDGVVGLEEETARMDEYVVLRFGWLYGPGTWYGKDGMIYNQFMDGQVTLSDGVTSFVHLDDAVETSIQAIHFENGIYNVADDAPVKGSEFAEWYKEQLGVEPNIDIQPAQPFERGVSNEKFKAQGGTLIYKTWKDGMNPIKEGHHHHHH” as the sequence, how does the “soluble on expression in E. coli” value read?
A: The value was “soluble”.

Q: With “GPGSMLHRSLACFAVPADRKAFMELVKTLRYRTEAPISDCSAALKETDGDMDAAMQVLRKRGAARAMKKGDRVTEHGFVVSCVGSTPQSGAAIVTICSETDFAARNEHFQRVCMQVRDQLCKLMDATNGAVLANPEEAVKHLSDVMAEELRVAIAVLGENMRVRSIAPLVPAPHVSERLLIGSYTHGSLNVDNVGRIVGLVALSQVRENEVVPKDVLTSVGRHFVATSGAEGNYAHQNFFGSETETVGKWLKQRGLKFSSSLVQEFGKEPVVHTAPEPHR” as the sequence, how does the “soluble on expression in E. coli” value read?
A: Its value is “not soluble”.

Q: Which “soluble on expression in E. coli” value does the source give for “TTDPILFMLSLVQQCRLSPKLAYGVIAGFRFLPLLKDEVQLIQQAHKIRGGAAESGIINKISALKRYTIPLLASAIRKAERTALAMESKGFTGSRNRTYYRTLSVNRRD” here?
A: Its value is “not soluble”.

Q: For “EVKLEESGGGLVQPGGSMKLSCATSGFTFSDAWMDWVRQSPEKGLEWVAEIRNKANNHATYYAESVKGRFTISRDDSKRRVYLQMNTLRAEDTGIYYCTGIYYHYPWFAYWGQGTLVTVSAEP”, which “soluble on expression in E. coli” value is on record?
A: The value was “soluble”.

Q: With “MGHHHHHHSHMVVLRAGKKTFLPALCRAFACRGCQLAPERGAERRDTAPSGVSRFCPPRKSCHDWIGPPDKYSNLRPVHFYIPENESPLEQKLRKLRQETQEWNQQFWANQNLTFSKEKEEFIHSRLKTKGLGLRTESGQKATLNAEEMADFYKEFLSKNFQKHMYYNRDWYKRNFAITFFMGKVALERIWNKLKQKQKKRSN” as the sequence, how does the “soluble on expression in E. coli” value read?
A: The value was “not soluble”.

Q: With “MKKEIIVYTISDSLGETSQKLLAAASAQYPDISFLNRYNFSFVTTEEELLEILKDALKDKALVVSTLVSKQLITAAKEFSERTGLLYLDLMAPFFELIQAKAGVDPIEEPGRRHQLDRAYFDKISAIEFAVKYDDGKNPQGFLDSDILLLGVSRTSKTPVSMYLANQGYRVSNLPLIPEVPLPPILEEMDPQKMIGLVCSPETLGQIRSSRLASLGLGNETSYTNVERIEQELAYAEEIFAKYGIPVIDVTAKSVEETAFLIKEKLDERN” as the sequence, how does the “soluble on expression in E. coli” value read?
A: The value was “not soluble”.

Q: With “MEVNKKQLADIFGASIRTIQNWQEQGMPVLRGGGKGNEVLYDSAAVIKWYAERDAEIENEKLRREVEE” as the sequence, how does the “soluble on expression in E. coli” value read?
A: Its value is “soluble”.

Q: For “QAMFERFTDRARRVIVLAQEEARMLNHNYIGTEHILLGLIHEGEGVAAKALESMGISLDAVRQEVEEIIGQGSQPTTGHIPFTPRAKKVLELSLREGLQMGHKYIGTEFLLLGLIREGEGVAAQVLVKLGADLPRVRQQVIQLLSG”, which “soluble on expression in E. coli” value is on record?
A: The value was “soluble”.

Q: For “MSLEGYSVLVLERHYRAGGYAHSFRRRKFIFDSAVRIAAGAMDGGLLEELLQEAGVSQDVEFLHLEDIYTAYYPNRKITVKGSVEGLIEAYCEEFPHECHNIRALVQEMEKLYEVTLMLLHSGDPLKVLSNPLMLKYRDKSFHDLTSSFLQDPQAIHSFAALWAYYGTPPTQGSAMFFAYAIMSYFKEDIYYAKGSFQSLADAFVKRIESLGGEVCLRNEVQRVEVEDRQIKGVHLQTGEYVEAEKVVCNGDFLKLVQHLVGEEHFPARYLKRISKLKPSISAFEVFLGVDLPLEKQGLSHETFIYNDYDYDLFMEKHQSLGEIGASGLSGLAISIPSLVDSSLAPEGMHTAILTTLVPYDIGCDWKEKKEDYQDQLIKMAERAIPNLGRHAVHVESGTPLTMERYTNNSFGSIYGWEQTKNQMTGRPQHETPIKGLYLSGQWTDPGGGIVSAILSGYKLRKKIMKEQVVMEGHHHHHH”, which “soluble on expression in E. coli” value is on record?
A: The value was “not soluble”.

Q: For “MFGTNGNAGIAVTDPTKQAEIYRALESLKKDESGWKKSVDSFIGPHKPSPEEQFLLLQVIEDYLNKRYHSSSQGDVSVIRTFLLHYTKNSRSSTVDQPAFLTNKMAHIFSLVFAADFPERWSSFFNDLFFSDNINDRKVAFFYLKVLLAIDTEVVNRDIQRSKNESDRNIKIKDAMREICINEIAKSWLTIANALPEDNVIQCLVLDNIASYVDWIELDLVANDYVMPLIISKFQNPATSESATAAVCSLLEKGMPAEKKVGLTLTIMTVLRSNGLLTVNDNNDEEEVTRVGSLVNTLGLVLLDVQNKLCASSILEKEQECCVQEMAGLAEPALVVLNNEDPDLSCMCIDYIRAYCSFLLKFHPNETNFIEKVIRAGLQRYVMNDDMTVGGDGEDEVEFQEFRRELRSMLNVIGLKRPEAIINAVEPWTAEVTSGGSSIPVNRIEALLNVIFHLHEIIPSNMLQSPREGISQRAARLPIVILEGLVLDGRCPAIHVLYFELACRYERLLVLQPQPVVIPHIAAAFLDQRGISISSANVRTRIVYLFCRFVKSHKTVLGPLVSEVITRLAPLLAVSPQADTNQLLSPEDQGYIFEATATLIVFGDLTSEMKSQYVGELASTLAMKFENGLVELNTARARKADEETIQAILQFMSNIIGYSSRMSKAFNNAQSMKACNCIDIYLRLIKLYLETLSPQNAFLLESTRQFAHRLVVSMENELMPYMNGIFDKLALVSTDLDSMHHLLIFCHQTVAKYKKAMLTSGVDLGNVLAIAARASLQEQENNIPAKDDSQRALLYVQRAFVQLLYTVIASDCTPALNTTPGLLDHVLESAARLALSSDQTAQKVALSCLAKISLITPSWSARTLRVALEIPSLSHITPSDAGSTLVVHEVCATLTSLHQSDPDGFTRALRELVPNGFSDQLLSALTNLKGKNLDKQVMNLYSSLRNQSAQ”, which “soluble on expression in E. coli” value is on record?
A: The value was “not soluble”.

Q: With “MEERDSETGWRGSREGWLQAAYEALIEGGVESVKIMTLAARLKLSRTSFYWFFKDRADVLDALRSQWAGTTTAPLVAASAEYAESRAEAMLNVLACFLSGRFDARFEFAARSWGLQDPAMAAAVEAADAERLAALTDMLARWGHDPQEADVRARTVYLVQIGYISMRAEETLETRLARIPNYVEIYTGVRPEPREMARFRARLGLAV” as the sequence, how does the “soluble on expression in E. coli” value read?
A: Its value is “not soluble”.

Q: With “MGHHHHHHSHMANSAGSMANSAGSMPSSPLRVAVVCSSNQNRSMEAHNILSKRGFSVRSFGTGTHVKLPGPAPDKPNVYDFKTTYDQMYNDLLRKDKELYTQNGILHMLDRNKRIKPRPERFQNCKDLFDLILTCEERVYDQVVEDLNSREQETCQPVHVVNVDIQDNHEEATLGAFLICELCQCIQHTEDMENEIDELLQEFEEKSGRTFLHTVCFY” as the sequence, how does the “soluble on expression in E. coli” value read?
A: The value was “soluble”.

Q: Which “soluble on expression in E. coli” value does the source give for “MGHHHHHHSHPRNSCSLHYIHPYQPNEYLKALVAVGEICQDYDSDKMFPAFGFGARIPPEYTVSHDFAINFNEDNPECAGIQGVVEAYQSCLPKLQLYGPTNIAPIIQKVAKSASEETNTKEASQYFILLILTDGVITDMADTREAIVHASHLPMSVIIVGVGNADFSDMQMLDGDDGILRSPKGEPVLRDIVQFVPFRNFKHASPAALAKSVLAEVPNQVVDYYNGKGIKPKCSSEMYESSRTLAP” here?
A: Its value is “not soluble”.

Q: With “MGSDKIHHHHHHMVRFISNTLSQTLNEPFQQSHKSCKHLYILEILSQVVIVSDQKQVPLQPYDIILAQSFNHLQIDSLDRNPILLRLYSLDFDLPSPLNQYTVGDNPLIHDLMNDHTSEDAYILFTNLSDLICHAYLDALEKLENLRDNNDEQVYIDFQRQKLAGLLFTELLRQHDAKVSKFASRFPSVNVKYASKDSQSGAIMKYVSDNVHHISLKEAAAHFFYQANYFSRLCHELFGISFNQLKTTIRLEIAKEQLRLTTKSVEEISQELGYKAVSNFHRNFKSQTGMTPNDYRQDKQ” as the sequence, how does the “soluble on expression in E. coli” value read?
A: The value was “not soluble”.

Q: For “MSLNKPKIVILGAGYGGLMTVTRLTKYVGPNDADITLVNKHNYHYETTWMHEASAGTLHHDRCRYQIKDVINQSRVNFVQDTVKAIKIDEKKVVLANGELQYDYLVIGLGAVPETFGIKGLKEYAFPIANINTSRLLREHIELQFATYNTEAEKRPDRLTIVVGGAGFTGIEFLGELAARVPELCKEYDVDRSLVRIICVEAAPTVLPGFDPELVDYAVHYLEENGVEFKIGTAVQECTPEGVRVGKKDEEPEQIKSQTVVWAAGVRGHPIVEEAGFENMRGRVKVNPDLRAPGHDNVFILGDSSLFMNEDTERPYPPTAQIAMQQGITVAKNLGRLIKGGELEEFKPDIKGTVASLGEHNAVGVVYGRKLKGTPASFMKKVIDNRSLFMIGGLGLTLKKGKFKEGHHHHHH”, which “soluble on expression in E. coli” value is on record?
A: Its value is “soluble”.

Q: Which “soluble on expression in E. coli” value does the source give for “MSLRLKILIKLSGAGMSADSSEPFSNQFLETVIAQLKQLVPNYQIGIVIGGGNIMRGKSCSDYNITEIAGHHLGIMATVINGAFLKAKFDSHKLNSTLLSAVSCPSLATHIVSQATIDDAFKNHDIVIFAGGTGNPYFSTDTAVALRATQMQADIILIGKNGVDGVYTADPKKDKHAKFLASLTYAEAIKNDLQIMDITAFTMCKENNLKVIIFNINAEHAIIKALSKQGKYTLIEKEGHHHHHH” here?
A: Its value is “soluble”.

Q: Which “soluble on expression in E. coli” value does the source give for “MKNEKIVVLYGGDSPEREVSLKSGKAVLDSLISQGYDAVGVDASGKELVAKLLELKPDKCFVALHGEDGENGRVSALLEMLEIKHTSSSMKSSVITMDKMISKEILMHHRMPTPMAKFLTDKLVAEDEISFPVAVKPSSGGSSIATFKVKSIQELKHAYEEASKYGEVMIEQWVTGKEITVAIVNDEVYSSVWIEPQNEFYDYESKYSGKSIYHSPSGLCEQKELEVRQLAKKAYDLLGCSGHARVDFIYDDRGNFYIMEINSSPGMTDNSLSPKSAAAEGVDFDSFVKRIIEQAQ” here?
A: The value was “not soluble”.
